77 sequences from the supplement of paper PMC7877785 can be followed below.

This data set in a line: self-splicing fitness, log relative to wild type (ln ratio); higher = more splicing; Tetrahymena group I intron in knt gene, E. coli kanamycin selection, DiMSum; sequences stand for … in CUCUCU…GGAGGGAAAAGUUAUCAGGCAUGCACCUGGUAGCUAGUCUUUAAACCAAUAGAUUGCAUCGGUUUAAAAGGCAAGACCGUCAAAUUGCGGGAAAGGGGUCAACAGCCGUUCAGUACCAAGUCUCAGGGGAAACUUUGAGAUGGCCUUGCAAAGGGUAUGGUAAUAAGCUGACGGACAUGGUCCUAACCACGCAGCCAAGUCCUAAGUCAACAGAUCUUCUGUUGAUAUGGAUGCAGUUCACAGACUAAAUGUCGGUCGGGGAAGAUGUAUUCUUCUCAUAAGAUAUAGUCGGACCUCUCCUUAAUGGGAGCUAGCGGAUGAAGUGAUGCAACACUGGAGCCGCUGGGAACUAAUUUGUAUGCGAAAGUAUAUUGAUUAGUUUUGGAGUACUCGUGGUCG
The method, boiled down:
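Library with all eight P1ex-region intron nucleotides randomised, intron inside the knt kanamycin-resistance gene on pET-22b(+), in E. coli BL21(DE3). Cells grew overnight at 37°C or 30°C on LB agar with or without 25 μg/mL kanamycin (plus 100 μg/mL carbenicillin, 50 μM IPTG, 0.2% rhamnose), in six replicate transformations. Pooled colonies were amplicon-sequenced on Illumina HiSeq 2500. DiMSum fitness is the error-weighted combination of wild-type-normalised replicate fold changes, kanamycin versus none.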

± gives the uncertainty stated by the source.

AAGAAGCAAUAUUACGCGGC: the “self-splicing fitness (ln)” value is, setting by setting: (30 °C) -3.5 ± 0.49; (37 °C) -2.17 ± 0.44.

For the sequence GUUCAGCAAUAUUACGUGUU, the “self-splicing fitness (ln)” value was -1.84 ± 0.08 (30 °C) and 0.0147 ± 0.089 (37 °C). Turning to GAGAAGCAAUAUUACGACGU, the “self-splicing fitness (ln)” value was -0.944 ± 0.22 (30 °C) and 0.108 ± 0.19 (37 °C). Consider UUGUAGCAAUAUUACGACGA, for which the “self-splicing fitness (ln)” value (30 °C) was -1.08 ± 0.26 and the “self-splicing fitness (ln)” value (37 °C) was -0.0034 ± 0.36.

As to CCUCAGCAAUAUUACGAAUA, the “self-splicing fitness (ln)” value is, setting by setting: (30 °C) -1.54 ± 0.2; (37 °C) -2.78 ± 0.4. For UUCAAGCAAUAUUACGAGGG, the “self-splicing fitness (ln)” value reads like this: (30 °C) -3.56 ± 0.23; (37 °C) -1.91 ± 0.17. Take GAGAAGCAAUAUUACGGGAA: the “self-splicing fitness (ln)” value (30 °C) was -2.47 ± 0.25 and the “self-splicing fitness (ln)” value (37 °C) is -1.24 ± 0.22. Take ACCCAGCAAUAUUACGCGCC: the “self-splicing fitness (ln)” value is -0.907 ± 0.064 (30 °C) and 0.136 ± 0.094 (37 °C).

As for UCCUAGCAAUAUUACGGAUG, the “self-splicing fitness (ln)” value is, setting by setting: (30 °C) -4.25 ± 0.34; (37 °C) -2.67 ± 0.2. ACAGAGCAAUAUUACGUCCA: the “self-splicing fitness (ln)” value runs as follows: (30 °C) -2.34 ± 0.2; (37 °C) -2.25 ± 0.26.

In the case of AGGUAGCAAUAUUACGCUCA, the “self-splicing fitness (ln)” value by setting is: (30 °C) -0.609 ± 0.017; (37 °C) -0.196 ± 0.035.

For AUUGAGCAAUAUUACGAUCG, the “self-splicing fitness (ln)” value by setting is: (30 °C) -2.34 ± 0.34; (37 °C) -1.04 ± 0.19. On the same counts, the results for GUCAAGCAAUAUUACGUUGA are -2.64 ± 0.21 and -3.51 ± 0.4. For the sequence CCUCAGCAAUAUUACGGAUC, the “self-splicing fitness (ln)” value (37 °C) is -1.41 ± 0.22. Take CUUAAGCAAUAUUACGGAAA: the “self-splicing fitness (ln)” value was -3.23 ± 0.38 (30 °C) and -2.1 ± 0.28 (37 °C). The corresponding values for UUGGAGCAAUAUUACGGCCG are -1.89 ± 0.3 and -0.616 ± 0.29. As to UGUAAGCAAUAUUACGCCGG, the “self-splicing fitness (ln)” value (30 °C) was -1.46 ± 0.12 and the “self-splicing fitness (ln)” value (37 °C) was -0.237 ± 0.13. For the sequence CCUGAGCAAUAUUACGCGUG, the “self-splicing fitness (ln)” value is, setting by setting: (30 °C) -3.05 ± 0.19; (37 °C) -2.82 ± 0.22. The corresponding values for CCCCAGCAAUAUUACGCGGU are -3.91 ± 0.13 and -2.17 ± 0.15.

As for AAUCAGCAAUAUUACGGGAC, the “self-splicing fitness (ln)” value reads like this: (30 °C) -3.57 ± 0.18; (37 °C) -1.4 ± 0.096. As for GAUUAGCAAUAUUACGCGGG, the “self-splicing fitness (ln)” value (30 °C) is -2.31 ± 0.12 and the “self-splicing fitness (ln)” value (37 °C) was -2.53 ± 0.18.

Turning to GGGCAGCAAUAUUACGAAAU, the “self-splicing fitness (ln)” value by setting is: (30 °C) -1.42 ± 0.25; (37 °C) -1.24 ± 0.22. The corresponding values for ACCCAGCAAUAUUACGUCAA are -1.88 ± 0.099 and -1.59 ± 0.11. On the same counts, the results for GGUUAGCAAUAUUACGUAUU are -1.14 ± 0.11 and -0.191 ± 0.1.

For the sequence CGACAGCAAUAUUACGAAAA, the “self-splicing fitness (ln)” value is -3.75 ± 0.26 (30 °C) and -1.93 ± 0.2 (37 °C). The corresponding values for GACGAGCAAUAUUACGGCCG are -2.02 ± 0.25 and -0.723 ± 0.37. The corresponding values for AAGAAGCAAUAUUACGUCUA are -0.234 ± 0.066 and -0.565 ± 0.098. The corresponding values for CCGCAGCAAUAUUACGGCAG are -1.4 ± 0.081 and 0.0999 ± 0.098. As for UGACAGCAAUAUUACGUGUC, the “self-splicing fitness (ln)” value was -3.44 ± 0.16 (30 °C) and -2.98 ± 0.16 (37 °C). The corresponding values for GCUUAGCAAUAUUACGGCAC are -2.62 ± 0.44 and 0.326 ± 0.28. On the same counts, the results for CGCUAGCAAUAUUACGCUCA are -2.4 ± 0.18 and -0.522 ± 0.11. As to GGUUAGCAAUAUUACGCGAC, the “self-splicing fitness (ln)” value reads like this: (30 °C) -2.02 ± 0.34; (37 °C) -1.33 ± 0.27. On the same counts, the results for UCACAGCAAUAUUACGUCCU are -3.15 ± 0.19 and -2.27 ± 0.15.

AGGCAGCAAUAUUACGAUAG: the “self-splicing fitness (ln)” value is -3.08 ± 0.34 (30 °C) and -2.15 ± 0.36 (37 °C). Take CUACAGCAAUAUUACGUAGG: the “self-splicing fitness (ln)” value by setting is: (30 °C) -1.39 ± 0.059; (37 °C) -1.14 ± 0.093. For CAAGAGCAAUAUUACGCCAG, the “self-splicing fitness (ln)” value by setting is: (30 °C) -1.92 ± 0.24; (37 °C) -2 ± 0.41.

Take UGCUAGCAAUAUUACGGUAU: the “self-splicing fitness (ln)” value reads like this: (30 °C) -2.28 ± 0.1; (37 °C) -2.43 ± 0.14.

As for GCUUAGCAAUAUUACGAGCC, the “self-splicing fitness (ln)” value runs as follows: (30 °C) -4.35 ± 0.39; (37 °C) -1.53 ± 0.39. The corresponding values for GCUAAGCAAUAUUACGGCAU are -2.13 ± 0.1 and -0.863 ± 0.12. The corresponding values for CAGGAGCAAUAUUACGGGGG are -2.9 ± 0.19 and -2.4 ± 0.25. Take AUGUAGCAAUAUUACGGUCC: the “self-splicing fitness (ln)” value by setting is: (30 °C) -1.32 ± 0.1; (37 °C) 0.341 ± 0.12. The corresponding values for GAUCAGCAAUAUUACGCAGA are -2.13 ± 0.14 and -0.891 ± 0.16.

In the case of GUGGAGCAAUAUUACGUAGC, the “self-splicing fitness (ln)” value (30 °C) worked out at 0.305 ± 0.33. Turning to GUGGAGCAAUAUUACGACUU, the “self-splicing fitness (ln)” value is -2.79 ± 0.34 (30 °C) and -0.283 ± 0.24 (37 °C).

CCCUAGCAAUAUUACGACUC: the “self-splicing fitness (ln)” value reads like this: (30 °C) -4.18 ± 0.28; (37 °C) -2.71 ± 0.24. Turning to CGAAAGCAAUAUUACGACAU, the “self-splicing fitness (ln)” value is, setting by setting: (30 °C) -2.721 ± 0.017; (37 °C) -1.41 ± 0.034. UCCCAGCAAUAUUACGUUUA: the “self-splicing fitness (ln)” value was -2.21 ± 0.12 (30 °C) and -1.79 ± 0.13 (37 °C). Consider ACGCAGCAAUAUUACGAAUC, for which the “self-splicing fitness (ln)” value reads like this: (30 °C) -4.07 ± 0.34; (37 °C) -2.11 ± 0.22. On the same counts, the results for CAGGAGCAAUAUUACGUCUU are -2.33 ± 0.095 and -2.16 ± 0.11. In the case of GUGUAGCAAUAUUACGCGGU, the “self-splicing fitness (ln)” value (30 °C) is -2.85 ± 0.34 and the “self-splicing fitness (ln)” value (37 °C) was -0.66 ± 0.41.

On to GAACAGCAAUAUUACGGGGA, for which the “self-splicing fitness (ln)” value (30 °C) is -1.6 ± 0.087 and the “self-splicing fitness (ln)” value (37 °C) was -0.774 ± 0.09.

Consider UGGUAGCAAUAUUACGGUUG, for which the “self-splicing fitness (ln)” value was -0.694 ± 0.082 (30 °C) and -0.285 ± 0.11 (37 °C). As for UUUAAGCAAUAUUACGAGCU, the “self-splicing fitness (ln)” value by setting is: (30 °C) -2.94 ± 0.22; (37 °C) -0.0484 ± 0.17. On the same counts, the results for UCCAAGCAAUAUUACGUACA are -0.123 ± 0.1 and -0.835 ± 0.12. As for CAGUAGCAAUAUUACGGCGC, the “self-splicing fitness (ln)” value was -1.59 ± 0.4 (30 °C) and -0.863 ± 0.25 (37 °C). Consider CAUCAGCAAUAUUACGUGGG, for which the “self-splicing fitness (ln)” value (30 °C) was -1.9 ± 0.075 and the “self-splicing fitness (ln)” value (37 °C) was -1.71 ± 0.1. Consider UAGCAGCAAUAUUACGGGCC, for which the “self-splicing fitness (ln)” value by setting is: (30 °C) -1.45 ± 0.21; (37 °C) -2.55 ± 0.36.

Take UGUCAGCAAUAUUACGUGCU: the “self-splicing fitness (ln)” value runs as follows: (30 °C) -3.51 ± 0.25; (37 °C) -2.23 ± 0.24. On the same counts, the results for CAACAGCAAUAUUACGUGAG are -0.531 ± 0.049 and -0.233 ± 0.07. The corresponding values for GUACAGCAAUAUUACGGGGG are -3.36 ± 0.12 and -3.03 ± 0.15.

Turning to UACUAGCAAUAUUACGAAAU, the “self-splicing fitness (ln)” value (37 °C) was -3.34 ± 0.4. In the case of CUGGAGCAAUAUUACGGGAU, the “self-splicing fitness (ln)” value runs as follows: (30 °C) -4.01 ± 0.37; (37 °C) -1.91 ± 0.28. With GAUAAGCAAUAUUACGAGUU, the “self-splicing fitness (ln)” value is, setting by setting: (30 °C) -2.26 ± 0.14; (37 °C) -1.27 ± 0.16. For AUCUAGCAAUAUUACGAAUA, the “self-splicing fitness (ln)” value (37 °C) was -0.668 ± 0.32. Regarding ACUAAGCAAUAUUACGCCCC, the “self-splicing fitness (ln)” value runs as follows: (30 °C) -0.566 ± 0.13; (37 °C) 0.127 ± 0.17.

As to UGACAGCAAUAUUACGUCUA, the “self-splicing fitness (ln)” value was -0.75 ± 0.09 (30 °C) and -0.464 ± 0.098 (37 °C).

With AUCUAGCAAUAUUACGACGU, the “self-splicing fitness (ln)” value worked out at 0.175 ± 0.057 (30 °C) and 0.669 ± 0.069 (37 °C). On to GUCGAGCAAUAUUACGGUAG, for which the “self-splicing fitness (ln)” value reads like this: (30 °C) -2.02 ± 0.11; (37 °C) -2.54 ± 0.25. The corresponding values for GGCAAGCAAUAUUACGUCGC are -2.66 ± 0.14 and -1.38 ± 0.13. Take GUGGAGCAAUAUUACGUGAC: the “self-splicing fitness (ln)” value (37 °C) was 1.74 ± 0.35.

Regarding GUGUAGCAAUAUUACGCCUG, the “self-splicing fitness (ln)” value (30 °C) is -3.94 ± 0.25 and the “self-splicing fitness (ln)” value (37 °C) is -0.863 ± 0.13. The corresponding values for GACUAGCAAUAUUACGGAUA are -1.4 ± 0.09 and -0.349 ± 0.09. The corresponding values for GUGGAGCAAUAUUACGUCGG are -3.08 ± 0.22 and -2.35 ± 0.2. Take UCAUAGCAAUAUUACGCGAU: the “self-splicing fitness (ln)” value (30 °C) was -1.9 ± 0.22. With UAGAAGCAAUAUUACGUUCU, the “self-splicing fitness (ln)” value (30 °C) was -1.61 ± 0.11 and the “self-splicing fitness (ln)” value (37 °C) was -1.08 ± 0.11. The corresponding values for GUUAAGCAAUAUUACGCUAA are -2.35 ± 0.14 and -1.54 ± 0.15. Regarding UUAUAGCAAUAUUACGUGGC, the “self-splicing fitness (ln)” value is -3.14 ± 0.37 (30 °C) and -2.45 ± 0.39 (37 °C).
